Reference: US20240368288A1 (HEMOGENYX PHARMACEUTICALS, published 2024)
Several values for one entry are separate records, joined by “and”; a condition that tells them apart may be missing. Identical values can stand only once.

What was measured:
[1] = biological target: T1, human FLT3 (Fms Related Receptor Tyrosine Kinase 3) expressed on cells (human, UniProt P36888 27-993); test: flow cytometry on FLT3-expressing REH cells
T1 construct: whole, on cells; Same entry used for all cell lines; also called FLK2
T1 sequence (looked up): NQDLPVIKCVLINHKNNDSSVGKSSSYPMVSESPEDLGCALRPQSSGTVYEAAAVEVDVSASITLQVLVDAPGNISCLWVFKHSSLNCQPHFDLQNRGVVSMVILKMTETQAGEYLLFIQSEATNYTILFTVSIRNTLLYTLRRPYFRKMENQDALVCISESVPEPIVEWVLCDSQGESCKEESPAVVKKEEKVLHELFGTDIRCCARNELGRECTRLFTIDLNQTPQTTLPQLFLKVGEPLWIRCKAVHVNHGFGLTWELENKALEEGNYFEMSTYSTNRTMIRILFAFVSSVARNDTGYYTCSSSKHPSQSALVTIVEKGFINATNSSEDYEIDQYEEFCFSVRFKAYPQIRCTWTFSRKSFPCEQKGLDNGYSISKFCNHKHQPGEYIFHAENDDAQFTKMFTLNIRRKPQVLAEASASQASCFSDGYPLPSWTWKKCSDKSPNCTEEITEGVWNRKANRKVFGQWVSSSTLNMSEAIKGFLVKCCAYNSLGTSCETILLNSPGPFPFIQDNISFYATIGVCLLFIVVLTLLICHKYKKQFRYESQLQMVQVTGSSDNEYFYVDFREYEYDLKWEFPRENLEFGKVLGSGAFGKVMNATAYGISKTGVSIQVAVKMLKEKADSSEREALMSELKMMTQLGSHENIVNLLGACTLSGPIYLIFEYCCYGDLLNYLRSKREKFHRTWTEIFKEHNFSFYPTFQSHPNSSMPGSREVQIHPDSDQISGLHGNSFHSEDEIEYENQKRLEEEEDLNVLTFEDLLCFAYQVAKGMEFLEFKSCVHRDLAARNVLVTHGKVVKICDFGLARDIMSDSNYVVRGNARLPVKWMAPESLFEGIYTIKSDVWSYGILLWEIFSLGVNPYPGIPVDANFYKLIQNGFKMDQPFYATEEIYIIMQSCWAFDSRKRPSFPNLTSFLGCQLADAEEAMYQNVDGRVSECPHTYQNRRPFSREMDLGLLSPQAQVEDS
Description: Cells were washed five times with flow buffer and stained with anti-human IgG Fc antibody conjugated to Alexa Fluor 488 (Jackson Immunoresearch Laboratories, 109-545-008). Cells were stained with 7-AAD (7-AAD Viability Staining Solution, Biolegend 420404) followed by flow cytometry analysis. […] The antibodies used are as described in Example 1.

[2] = biological target: T1, human FLT3 (Fms Related Receptor …); test: flow cytometry, chimeric antibody on FLT3-expressing REH cells
[3] = biological target: T2, human CD3 on the surface of T cells / Jurkat cells (human, UniProt P07766 23-207; P09693 23-182; P04234 22-171); test: flow cytometry on primary human pan T cells from cord blood
T2 construct: whole, on cells
T2 sequence (P07766 23-207, chain 1 of 3): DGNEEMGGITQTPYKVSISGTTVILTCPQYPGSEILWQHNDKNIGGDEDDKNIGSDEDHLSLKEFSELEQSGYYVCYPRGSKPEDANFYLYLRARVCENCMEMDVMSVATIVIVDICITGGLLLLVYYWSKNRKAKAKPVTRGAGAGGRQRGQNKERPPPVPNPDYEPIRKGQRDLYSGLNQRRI
T2 sequence (P09693 23-182, chain 2 of 3): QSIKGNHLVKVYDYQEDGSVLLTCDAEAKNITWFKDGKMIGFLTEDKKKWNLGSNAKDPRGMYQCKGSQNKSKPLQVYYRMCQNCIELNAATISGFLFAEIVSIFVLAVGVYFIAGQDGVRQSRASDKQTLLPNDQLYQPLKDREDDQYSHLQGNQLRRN
T2 sequence (P04234 22-171, chain 3 of 3): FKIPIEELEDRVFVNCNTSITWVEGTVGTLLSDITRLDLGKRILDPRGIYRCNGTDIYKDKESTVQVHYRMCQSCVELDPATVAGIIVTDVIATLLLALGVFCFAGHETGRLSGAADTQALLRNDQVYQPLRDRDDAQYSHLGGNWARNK

[4] = biological target: T2, human CD3 on the surface of T cells / …; test: flow cytometry on CD3-expressing Jurkat cells
Procedure: The mouse heavy and light chain variable regions of SP34 clone were humanized and two humanized variants were tested for their binding affinities to CD3 in Jurkat cells (ATCC) expressing high levels of CD3. Jurkat cells were stained with various concentrations of humanized SP34 variants 2 and 6 (variant 2 VH and VL are SEQ ID NOs: 67 and 68, respectively; variant 6 VH and VL are SEQ ID NOs: 69 and 70, respectively) antibodies prepared in PBS+2% BCS+2 mM EDTA (flow buffer). Cells were washed five times with flow buffer and stained with anti-human IgG Fc antibody conjugated to Alexa Flour 488 (Jackson Immunoresearch Laboratories, 109-095-008). Cells were stained with 7-AAD (7-AAD Viability Staining Solution, Biolegend 420404) followed by flow cytometry analysis.

[5] = biological target: T1, human FLT3 (Fms Related Receptor …); test: flow cytometry on FLT3+ REH cells
Description: (§1) Cells were washed five times with flow buffer and stained with anti-human IgG lambda antibody conjugated to FITC (Southern Biotech 2070-02). Cells were stained with 7-AAD (7-AAD Viability Staining Solution, Biolegend 420404) followed by flow cytometry analysis.

[6] = biological target: T1, human FLT3 (Fms Related Receptor …); test: cell-based or functional assay
[7] = biological target: T2, human CD3 on the surface of T cells / …; test: flow cytometry on CD3+ human T cells
Description: as §1

[8] = biological target: T3, Recombinant Human CD3 epsilon Fc Chimera Protein (R&D, no. 9850-CD-050) (human, UniProt P07766 23-126); test: ELISA, plate coated with recombinant human CD3 epsilon Fc chimera
T3 construct: Bought reagent; Fc part of the bought chimera not given
T3 sequence (P07766 23-126, change not shown): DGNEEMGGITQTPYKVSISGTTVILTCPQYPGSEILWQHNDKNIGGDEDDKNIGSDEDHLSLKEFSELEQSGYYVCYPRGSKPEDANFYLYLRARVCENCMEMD
Procedure: The plate was washed with wash buffer (PBS (Caisson Labs, no. PBL06)+0.05% Tween20 (ThermoFisher, no. 28320)) The plate was blocked with blocking buffer (PBS (Caisson Labs, no. PBL06)+1% (w/v) BSA (Rockland, no. BSA-50)+0.05% Tween20 (ThermoFisher, no 28320)) for two hours at room temperature (RT). Plate was washed twice with wash buffer. […] Plate was washed 4× with wash buffer. Plate was incubated with 100 μL per well of 1:200 goat anti-human lambda-HRP secondary antibody (SouthernBiotech, no. 2070-05) for one hour at RT. Plate was washed 4× with wash buffer. Plate was incubated with 100 μL per well of TMB Substrate (ThermoFisher Cat #34029) for 20 minutes protected from light. Stop solution (2N H₂SO₄) was added to each well. Absorbance of wells was recorded at 450 nm on an Envision plate reader (PerkinElmer). […] Variable slope (four parameters) curve was fit to the data and EC50 was used to compare binding affinities.

B1: humanized 118BA variant 1 (antibody, V domains shown)
VH: QVTLKESGPTLVKPTQTLTLTCTFSGFSLSTSTMGVGWIRQPPGKALEWLAHILWNDSKRYNPSLKSRLTITKDTSKKQVVLTMTNMDPVDTATYYCARIVYYSTYVGYFDVWGQGTTVTVSS
VL: DIQMTQSPSSLSASVGDRVTITCRASQEISGYLSWLQQKPGKAIKRLIYAASTLQSGVPSRFSGSRSGSDYTLTISSLQPEDFATYYCLQYASYPFTFGQGTKLEIK
notes: detected with anti-human IgG Fc; also called 18BA-v1; 1-18BA-v1
Q: Which EC50 [1] does the source give for B1 here?
A: 0.4 nM

B2: humanized 118BA variant 5 (antibody, V domains shown)
VH: QITLKESGPTLVKPTQTLTLTCTFSGFSLSTSTMGVGWIRQPPGKALEWLAHILWNDDKRYGPSLKSRLTITKDTSKKQVVLTMTNMDPVDTATYYCARIVYYSTYVGYFDVWGQGTTVTVSS
VL: EIVMTQSPGTLSLSPGERATLSCRASQEISGYLSWLQQKPGQAIRRLIYAASTRATGIPDRFSGSRSGSDYTLTISRLEPEDFAVYYCLQYASYPFTFGQGTKLEIK
notes: detected with anti-human IgG Fc; also called 18BA-v5
Q: Which EC50 [1] does the source give for B2 here?
A: 0.72 nM

B3: chimeric monoclonal anti-FLT3 antibody 118BA (antibody, V domains shown)
VH: QVTLKESGPGILQPSQTLSLTCSFSGFSLSTSTMGVGWIRQPSGKGLEWLLHILWNDSKYYNPALKSRLTISKDTYNKQVFLKIANVDTADTATYYCARIVYYSTYVGYFDVWGAGTTVTVSS
VL: DIQMTQSPSSLSASLGERVSLTCRASQEISGYLSWLQQKPDGTIKRLIYAASTLHSGVPKRFSGSRSGSDYSLTISRLESEDVADYYCLQYASYPFTFGSGTKLEIK
Q: B3 was tested. Which EC50 [2] did it give?
A: 0.77 nM

B4: chimeric monoclonal anti-CD3 IgG SP34 clone (antibody, V domains shown)
VH: EVQLVESGGGLVQPKGSLKLSCAASGFTFNTYAMNWVRQAPGKGLEWVARIRSKYNNYATYYADSVKDRFTISRDDSQSILYLQMNNLKTEDTAMYYCVRHGNFGNSYVSWFAYWGQGTLVTVSS
VL: QAVVTQESALTTSPGETVTLTCRSSTGAVTTSNYANWVQEKPDHLFTGLIGGTNKRAPGVPARFSGSLIGDKAALTITGAQTEDEAIYFCALWYSNLWVFGGGTKLTVL
Q: How did the EC50 [3] turn out when B4 was run?
A: 3.2 nM

B5: humanized SP34 variant 6 (antibody, human IgG1, V domains shown)
VH: EVQLVESGGGLVQPGGSLKLSCAASGFTFNTYAMNWVRQASGKGLEWVGRIRSKYNNYATYYADSVKGRFTISRDDSKNTAYLQMNSLKTEDTAVYYCVRHGNFGNSYVSWFAYWGQGTLVTVSS
VL: QAVVTQEPSFSVSPGGTVTLTCGSSTGAVTTSNYANWVQQTPGQAFRGLIGGTNKRSSGVPDRFSGSLLGDKAALTITGAQADDESDYYCALWYSNLWVFGGGTKLTVLG
notes: also called humSP34-v6; humanized anti-CD3 SP34 variant 6
Q: B5 was tested. Which EC50 [4] did it give?
A: 3.2 nM

B6: humanized SP34 variant 2 (antibody, human IgG1, V domains shown)
VH: EVQLVESGGGLVQPGGSLKLSCAASGFTFNTYAMNWVRQASGKGLEWVGRIRSKYNNYATYYADSVKGRFTISRDDSKSTAYLQMNSLKTEDTAVYYCVRHGNFGNSYVSWFAYWGQGTLVTVSS
VL: QAVVTQEPSLTVSPGGTVTLTCGSSTGAVTTSNYANWVQQKPGQAFRTLIGGTNKKHPWTPARFSGSLLGGKAALTLSGAQPEDEAEYYCALWYSNLWVFGGGTKLTVLG
notes: also called humSP34-v2; humanized anti-CD3 SP34 variant 2
Q: How did the EC50 [4] turn out when B6 was run?
A: 2.38 nM

B7: CD3xFLT3 bispecific antibody 118BA #3C (bispecific antibody, human IgG1, lambda)
heavy: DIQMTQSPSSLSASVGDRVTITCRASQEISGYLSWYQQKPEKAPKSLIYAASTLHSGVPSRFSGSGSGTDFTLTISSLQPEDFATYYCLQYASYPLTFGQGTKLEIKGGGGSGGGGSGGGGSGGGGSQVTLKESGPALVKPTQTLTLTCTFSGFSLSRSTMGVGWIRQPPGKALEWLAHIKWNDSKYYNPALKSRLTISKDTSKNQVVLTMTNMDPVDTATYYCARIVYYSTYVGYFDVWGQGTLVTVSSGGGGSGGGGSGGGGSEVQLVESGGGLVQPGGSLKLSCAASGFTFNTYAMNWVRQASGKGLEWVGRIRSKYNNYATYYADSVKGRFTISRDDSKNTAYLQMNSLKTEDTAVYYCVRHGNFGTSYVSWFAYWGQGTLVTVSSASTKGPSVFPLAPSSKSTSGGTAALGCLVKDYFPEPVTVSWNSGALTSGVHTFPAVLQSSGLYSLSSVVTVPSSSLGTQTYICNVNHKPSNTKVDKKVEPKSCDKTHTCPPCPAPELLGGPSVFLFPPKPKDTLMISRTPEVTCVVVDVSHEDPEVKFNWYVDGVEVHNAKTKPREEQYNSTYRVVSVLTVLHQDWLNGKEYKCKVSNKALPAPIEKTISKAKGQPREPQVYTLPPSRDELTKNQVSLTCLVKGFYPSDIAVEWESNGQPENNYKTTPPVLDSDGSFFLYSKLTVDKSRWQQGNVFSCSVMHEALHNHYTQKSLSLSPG
light: QAVVTQEPSFSVSPGGTVTLTCGSSTGAVTTSNYANWVQQTPGQAFRGLIGGTNKRSSGVPDRFSGSLLGDKAALTITGAQADDESDYYCALWFSNHWVFGGGTKLTVLGGQPKAAPSVTLFPPSSEELQANKATLVCLISDFYPGAVTVAWKADSSPVKAGVETTTPSKQSNNKYAASSYLSLTPEQWKSHRSYSCQVTHEGSTVEKTVAPTECS
Q: Which results are given for B7?
A: EC50 [5]: 0.9 nM; EC50 of cytotoxicity against REH cells [6]: 0.013 nM; EC50 [7]: 32 nM

B8: CD3xFLT3 bispecific antibody 118BA #3A (bispecific antibody, human IgG1, lambda)
heavy: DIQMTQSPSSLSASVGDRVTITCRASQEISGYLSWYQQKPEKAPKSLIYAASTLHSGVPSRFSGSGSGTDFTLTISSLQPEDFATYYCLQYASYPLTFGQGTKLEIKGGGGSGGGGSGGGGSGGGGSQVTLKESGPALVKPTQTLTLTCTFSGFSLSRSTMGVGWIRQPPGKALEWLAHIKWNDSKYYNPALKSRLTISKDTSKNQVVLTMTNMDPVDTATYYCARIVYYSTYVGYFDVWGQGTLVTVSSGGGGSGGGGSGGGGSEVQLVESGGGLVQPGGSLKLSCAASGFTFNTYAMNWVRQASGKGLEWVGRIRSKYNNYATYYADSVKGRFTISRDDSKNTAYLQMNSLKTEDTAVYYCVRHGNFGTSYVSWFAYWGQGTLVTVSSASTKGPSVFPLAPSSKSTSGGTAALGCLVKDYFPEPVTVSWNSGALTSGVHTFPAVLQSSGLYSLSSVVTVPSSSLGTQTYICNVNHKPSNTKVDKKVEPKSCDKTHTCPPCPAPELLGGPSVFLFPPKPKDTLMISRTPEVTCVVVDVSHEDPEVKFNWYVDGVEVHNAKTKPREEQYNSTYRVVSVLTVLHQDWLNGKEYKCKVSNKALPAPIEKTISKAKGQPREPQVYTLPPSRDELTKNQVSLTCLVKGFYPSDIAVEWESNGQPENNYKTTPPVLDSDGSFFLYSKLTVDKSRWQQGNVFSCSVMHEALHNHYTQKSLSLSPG
light: QAVVTQEPSFSVSPGGTVTLTCGSSTGAVTTSNYANWVQQTPGQAFRGLIGGTNKRSSGVPDRFSGSLLGDKAALTITGAQADDESDYYCALWYSNLWVFGGGTKLTVLGGQPKAAPSVTLFPPSSEELQANKATLVCLISDFYPGAVTVAWKADSSPVKAGVETTTPSKQSNNKYAASSYLSLTPEQWKSHRSYSCQVTHEGSTVEKTVAPTECS
Q: B8 was tested. Which EC50 [5] did it give?
A: 1.18 nM

Q: And the “EC50 of cytotoxicity against REH cells” value [6]?
A: 0.013 nM

Q: And the EC50 [7]?
A: 15.5 nM

B9: CD3xFLT3 bispecific antibody 118BA #3a1 (bispecific antibody, human IgG1, lambda)
heavy: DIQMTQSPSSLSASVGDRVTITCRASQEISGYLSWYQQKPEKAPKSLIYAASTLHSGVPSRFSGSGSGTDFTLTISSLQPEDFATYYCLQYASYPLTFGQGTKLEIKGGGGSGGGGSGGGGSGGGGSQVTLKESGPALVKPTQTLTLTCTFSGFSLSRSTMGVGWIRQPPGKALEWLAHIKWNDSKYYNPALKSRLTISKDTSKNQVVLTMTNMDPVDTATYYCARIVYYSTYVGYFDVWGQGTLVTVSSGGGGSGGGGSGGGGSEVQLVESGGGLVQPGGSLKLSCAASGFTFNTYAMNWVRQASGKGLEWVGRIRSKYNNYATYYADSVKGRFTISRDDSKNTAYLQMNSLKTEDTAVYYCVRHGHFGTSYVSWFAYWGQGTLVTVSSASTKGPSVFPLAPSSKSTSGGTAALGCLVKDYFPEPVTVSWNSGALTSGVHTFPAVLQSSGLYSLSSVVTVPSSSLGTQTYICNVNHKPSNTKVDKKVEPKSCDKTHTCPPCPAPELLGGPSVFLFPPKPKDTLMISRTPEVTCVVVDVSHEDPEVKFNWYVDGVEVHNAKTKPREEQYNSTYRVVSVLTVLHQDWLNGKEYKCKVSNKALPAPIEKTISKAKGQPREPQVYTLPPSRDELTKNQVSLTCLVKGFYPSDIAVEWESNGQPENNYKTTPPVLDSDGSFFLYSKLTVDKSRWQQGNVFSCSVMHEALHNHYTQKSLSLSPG
light: QAVVTQEPSFSVSPGGTVTLTCGSSTGAVTTSNYANWVQQTPGQAFRGLIGGTNKRSSGVPDRFSGSLLGDKAALTITGAQADDESDYYCALWFSNHWVFGGGTKLTVLGGQPKAAPSVTLFPPSSEELQANKATLVCLISDFYPGAVTVAWKADSSPVKAGVETTTPSKQSNNKYAASSYLSLTPEQWKSHRSYSCQVTHEGSTVEKTVAPTECS
Q: With B9 as the binder, how does the EC50 [5] read?
A: 1.17 nM

Q: What about the EC50 [8] of the same binder?
A: 0.0331 µg/mL and 0.16 nM

Q: And the “EC50 of cytotoxicity against REH cells” value [6]?
A: 0.33 nM

B10: CD3xFLT3 bispecific antibody 118BA #3B (bispecific antibody, human IgG1, lambda)
heavy: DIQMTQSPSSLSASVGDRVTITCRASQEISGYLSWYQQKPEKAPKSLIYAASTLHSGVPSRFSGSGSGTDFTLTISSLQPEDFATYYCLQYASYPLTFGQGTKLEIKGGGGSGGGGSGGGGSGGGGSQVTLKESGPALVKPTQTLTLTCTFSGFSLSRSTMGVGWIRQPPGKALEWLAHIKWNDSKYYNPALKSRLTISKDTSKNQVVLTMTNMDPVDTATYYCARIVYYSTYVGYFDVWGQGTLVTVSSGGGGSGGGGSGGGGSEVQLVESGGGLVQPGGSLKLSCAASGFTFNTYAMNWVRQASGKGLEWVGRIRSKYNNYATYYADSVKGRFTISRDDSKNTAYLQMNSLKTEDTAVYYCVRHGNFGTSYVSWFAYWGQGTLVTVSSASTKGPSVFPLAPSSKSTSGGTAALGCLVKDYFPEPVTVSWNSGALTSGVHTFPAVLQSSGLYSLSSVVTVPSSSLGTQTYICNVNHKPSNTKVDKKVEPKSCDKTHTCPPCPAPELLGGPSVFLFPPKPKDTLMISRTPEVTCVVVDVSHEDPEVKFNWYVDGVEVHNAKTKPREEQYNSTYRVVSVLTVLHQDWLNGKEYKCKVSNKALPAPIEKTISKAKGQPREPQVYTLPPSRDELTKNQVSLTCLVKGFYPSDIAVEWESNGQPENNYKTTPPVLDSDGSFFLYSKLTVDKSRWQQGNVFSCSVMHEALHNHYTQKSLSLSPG
light: QAVVTQEPSFSVSPGGTVTLTCGSSTGAVTTSNYANWVQQTPGQAFRGLIGGTNKRVSGVPDRFSGSLLGDKAALTITGAQADDESDYYCALWFSNHWVFGGGTKLTVLGGQPKAAPSVTLFPPSSEELQANKATLVCLISDFYPGAVTVAWKADSSPVKAGVETTTPSKQSNNKYAASSYLSLTPEQWKSHRSYSCQVTHEGSTVEKTVAPTECS
Q: For B10, which EC50 [5] is on record?
A: 1.23 nM

Q: What about the “EC50 of cytotoxicity against REH cells” value [6] of the same binder?
A: 0.017 nM

Q: And the EC50 [7]?
A: 13.6 nM
